Data reported in paper PMC10952193, “Structure and Function of the α‐Hydroxylation Bimodule of the Mupirocin Polyketide Synthase” (Angewandte Chemie (Weinheim an Der Bergstrasse, Germany), 2023).

B1: MupA (enzyme, Pseudomonas fluorescens, UniProt Q9AH80 1-369, looked up)
chain: MSVEQLLGLGVTNAARAPRQPAFSLLFFSDVREDISASEKYEFARSLTLFGDAQGFEAVYFPERHFHEFGAIYPDSAVMAASLIPQTRHIRFRTAGISLPLHHPARVVESWSMNDVLSGGRVDLGFGSGWSRPDFLLAPHAYEDRREVMWQRIEQVRRLWAGERLSFPGPGGDPVSVVTFPRPLQTSLNVWILVAQNTESFIAAGKAGFNVFTMLYGIDLPDLAEKIGLYRQARRDAGFDPASGRVTLMLHTLVGPDSAWVRRAVEAPFKDYIRSSLVAHMKARATPDGRPLDATEQENVLQYAFERYYETGALFGTVDEVRYRVGQVLETGVDEIACLMDFGVDYAVVHQSLPYLEQLVASFQERSAQ
notes: MupA, trans-acting flavin-dependent monooxygenase of the mupirocin biosynthetic gene cluster of Pseudomonas fluorescens; Dimeric by SEC; a dimer of dimers above 2 mg/ml; Used unlabelled in the NMR experiments; also called flavin-dependent monooxygenase (FMO); FMNH2-dependent oxygenase
B2: Fre (enzyme, E. coli, UniProt P0AEN1 1-233, looked up)
chain: MTTLSCKVTSVEAITDTVYRVRIVPDAAFSFRAGQYLMVVMDERDKRPFSMASTPDEKGFIELHIGASEINLYAKAVMDRILKDHQIVVDIPHGEAWLRDDEERPMILIAGGTGFSYARSILLTALARNPNRDITIYWGGREEQHLYDLCELEALSLKHPGLQVVPVVEQPEAGWRGRTGTVLTAVLQDHGTLAEHDIYIAGRFEMAKIARDLFCSERNAREDRLFGDAFAFI
notes: Fre, NAD(P)H:flavin oxidoreductase of E. coli, GenBank M61182; also called oxidoreductase Fre; E. coli Fre; source: E. coli, recombinant, overexpressed, purified

Legend:
[1] = biological target: the molecule itself; experiment: SEC; size exclusion chromatography of purified MupA at higher concentrations (>2 mg/ml)
[2] = biological target: the molecule itself; experiment: SEC; size exclusion chromatography of purified MupA (lower concentrations)
[3] = biological target: the molecule itself; experiment: not stated; purification of recombinant Fre (Figure S6); how the dimer was shown is not told in the main text

Row | Protein | stoichiometry N [1] | stoichiometry N [2] | stoichiometry N [3]
1 | B1 | 4 | 2 | –
2 | B2 | – | – | 2
